{"source": "paper doi:10.1101/2021.06.28.450235", "biological_target": "CaCl2-washed photosystem II complex (T. elongatus | T. elongatus (endogenous)) (UniProt Q8DIF8)", "experiment": "native gel or EMSA", "data": [{"substance": "CaCl2-washed photosystem II complex (from UniProt Q8DIF8 1-461; P0A444 1-344; Q8DIQ1 1-510)", "values": [{"measurement": "stoichiometry N", "value": 2}]}]}
